This note sets out measurements from the nanobody polyreactivity screen of Harvey et al. (2022).

The series can be described thus: yeast display, Sf9 membrane polyspecificity reagent, FACS + sequencing; frameworks hold sequencing errors. The essentials: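 Galactose-induced (36–48 hours) yeast carrying a synthetic nanobody display library were exposed to 10% biotinylated, detergent-solubilized Sf9 membrane reagent at 4 °C for 1 hour. FACS followed streptavidin microbead enrichment, using low and high (top ~1%) gates for expression (anti-HA) and reagent binding (streptavidin). Colony PCR, MiSeq 2 × 250 sequencing and CDR-length filtering followed. Labels for polyreactivity reflect the gate of origin.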
In the case of “QVQLVESGGGLVQAGGSLRLSCAASGITFYTNAMGWYRQAPGKERELVAAISSGDSTNYADSVKGRFTISRDNAKNTVYLQMNSLKPEDTAVYYCAKEATQLVWIGMDYWGQGTQVTVSS”, the “polyreactivity (PSR sort gate)” value is on record as “low polyreactivity”.
Turning to “QVQLVESGGGLVQAGGSLRLSCAASGITFYVNAMGWYRQAPGKERELVAAITQSVDITSYADSVKGRFTISRDNAKNTVYLQMNSLKPEDTAVYYCATRGIPDDNARDYWGQGTQVTVSS”, the “polyreactivity (PSR sort gate)” value is given as “low polyreactivity”.
As for “QVQLVESGGGLVQAGGSLRLSCAASGITFYVNAMGWYRQAPGKERELVASISTGGSTNYADSVKGRFTISRDNAKNTVYLQMNSLKPEDTAVYYCAARVDYHPSLRDYWGQGTQVTVSS”, the entry is “low polyreactivity”; as for “QVQLVESGGGLVQAGGSLRLSCAASGITFYVYALRWYRQAPGKERELVASISWIGGRTYYADSVKGRFTISRDNAKNTVYVQMNSLKPEDTAVYYCAARAYSYWSGLDYWGQGTQVTVSS”, “high polyreactivity”; as for “QVQLVESGGGLVQAGGSLRLSCAASGITFYVYDMGWYRQAPGKERELVAAISWSGGSTYYADSVKGRFTISRDNAKNTVYLQMNSLKPEDTAVYYCAAEVEYWYELYDYWGQGTQVTVSS”, “high polyreactivity”.
As for “QVQLVESGGGLVQAGGSLRLSCAASGITFYWYAMGWYRQAPGKERELVAAISSGGSTYYADSVKGRFTISRDNAKNTVYLQMNSLKPEDTAVYYCAAAFRYTPLSDHGYWGQGTQVTVSS”, the entry is “high polyreactivity”; as for “QVQLVESGGGLVQAGGSLRLSCAASGITFYYYAMGRYRQAPGKERELVAAIDTDGSTYYADSVKGRFTISRDNAKNTVYLQMNSLKPVDTAVYYCNAVGSRRSIPRVYYWGQGTQVNVSS”, “high polyreactivity”; as for “QVQLVESGGGLVQAGGSLRLSCAASGITFYYYAMGWYRQAPGKERELVAAINWSGTSTYYADSVKGRFTISRDNAKNTVYLQMNSLKPEDTAVYYCNAERGRSFWWAYDYWGQGTQVTVSS”, “low polyreactivity”.
“QVQLVESGGGLVQAGGSLRLSCAASGITFYYYARGWYRQAPGKERELVAAINSGGITNYADSVKGRFTISRDNAKNTVFLQMNSLKPEDTAVYYCAASSGFRYRYGYWGQGTQVTVSS”: the “polyreactivity (PSR sort gate)” value is “high polyreactivity”.
For “QVQLVESGGGLVQAGGSLRLSCAASGITFYYYTMGWYRTAPGKEREFVAVISGSGGSTYYADSVKGRFTISRDNAKNTVYLQMNSLKPEDTAVYYCAARNSFLAYFVGLIQEDDYWGQGTQVTVSS”, the “polyreactivity (PSR sort gate)” value was “high polyreactivity”.
On to “QVQLVESGGGLVQAGGSLRLSCAASGITIAGYAMGWYRQAPGKERELVAAITIGGRTYYADSVKGRFTISRDNAKNSVYLQMNSLKPEDTAVYYCAGVVRALTIKYGYWGQGTQVTVSS”, for which the “polyreactivity (PSR sort gate)” value was “high polyreactivity”.
Consider “QVQLVESGGGLVQAGGSLRLSCAASGITIGYNAMGWYRQAPGKERELVATIRSGGSTYYADSVKGRFTISRDNAQKTVYLQMNSLKPEDTAVYYCNRDGYYYSTFDFDYWGQGTQVTVSS”, for which the “polyreactivity (PSR sort gate)” value is listed as “low polyreactivity”.
In the case of “QVQLVESGGGLVQAGGSLRLSCAASGITIKYYTMGWYRQANGKERELVAAISRSGGSTYYADSVKGRFTISLDNAKNTVYLQMNSMIPEDTAVYYCAAERVAYRGVTFPYGYWGQGTQVTVSS” it was “high polyreactivity”; in that of “QVQLVESGGGLVQAGGSLRLSCAASGITIPVYLGWYRQAPGKETELVAAISSGGSTYADSVKGRFTISRDNAKNTVYLQMNSLKPEDTAVYYCNADRWFGNYLHLTFLNDYWGQGTQVTVSS”, “low polyreactivity”.
As for “QVQLVESGGGLVQAGGSLRLSCAASGITIREYAMGWYRQAPGKERELVASISGGGGSTSYADSVKGRFTISRDNAKNTVYLQMNSLKPEDTAVYYCATRYAIAGWVGYYYWGQGTQVTVSS”, the entry is “low polyreactivity”.
For “QVQLVESGGGLVQAGGSLRLSCAASGITIRRYAMGWYRQAPGKERELVAAISTSGGGTYYADSVKGRFTISRDNAKYTVYLQMNSLKPEDTAVYYCAARYLGYLLSGYPPYDYWGQGTQVTVSS”, the “polyreactivity (PSR sort gate)” value is given as “high polyreactivity”.
As for “QVQLVESGGGLVQAGGSLRLSCAASGITISWYAMGWYRQAPGKERELVAAITRTAGTNYADSVKGRFTISRDNAKNTVYLQMNSLKPEDTAVYYCAAVGHGGLLYWRNYGYGYWGQGTQVTVSS”, the entry is “low polyreactivity”; as for “QVQLVESGGGLVQAGGSLRLSCAASGITIVNYVMGWYRQAPGKERELVAAISLGGGTYYADSVKGRFTISRDNAKNTVYLQMNSLKADDTAVYYGNASYGGLAFYIGVYVTGYDYWRQGTQVTVSS”, “low polyreactivity”; as for “QVQLVESGGGLVQAGGSLRLSCAASGITIVYYTMGWYIQAPGKERELVASITWDGGSTYYADSVKGRFTISRDNAKNTVYLQMNSLKPEDTAVYYCNRDRVSGGKYNYWGQGTQVTVSS”, “low polyreactivity”.
On to “QVQLVESGGGLVQAGGSLRLSCAASGITIYGNAMGWYRQAPGKERELVAAITFSGGITYYADSVKGRFTISRDNAKNTVYLQMNSLKPEDTAVYYCATDPIGGWTRPQRYGDDYWGQGTQVTVSS”, for which the “polyreactivity (PSR sort gate)” value is “low polyreactivity”.
In the case of “QVQLVESGGGLVQAGGSLRLSCAASGITIYGYAMGWYRQAPGKERELVAAITRSGGRTYYADSVKGRFTISRDNAKNTVYLQMNSLKPEDTAVYYCAKDMNDETAPYYYWGQGTQVTVSS” it was “high polyreactivity”; in that of “QVQLVESGGGLVQAGGSLRLSCAASGITLAIYAMGWYRQAPGKERELVAAISSSGASTYYADSVKGRFTISRDNAKNTVYILMNSLKPEDTAVYYCAAAYGGSSYEYNYWGQGTQVTVSS”, “low polyreactivity”.
As for “QVQLVESGGGLVQAGGSLRLSCAASGITLAWYAMGWYRQAPGKERELVAAINSGGSTYYADSVKGRFTISRDNAKNTVYLQMNSLKPEDTAVYYCKTDDDSSSTGYYSWGQGTQVTVSS”, the entry is “low polyreactivity”; as for “QVQLVESGGGLVQAGGSLRLSCAASGITLFGYAMGWYRQAPGKERELVAVITSDGGRTYYADSVKGRFTISRDNAKNTVYLQMNSLKPEDTAVYYCAARAYDRTSGYYYWGQGTQVTVSS”, “low polyreactivity”; as for “QVQLVESGGGLVQAGGSLRLSCAASGITLFGYTMGWYRQAPGKERELVAAIRRRGVSTYYADSVKGRFTISRDNAKNTVYLQMNSLKPEDTAVYYCAKSLKPYTDYDYWGQGTQVTVSS”, “high polyreactivity”.
As for “QVQLVESGGGLVQAGGSLRLSCAASGITLFHYVKGWYRQAPGKERELVADITWRGGNTFYADSVKGRFTISRDNAKNTVYLQMNSLKPEDTAVYYCAVRQAYRTRDYDYWGQGTQVTVSS”, the entry is “high polyreactivity”; as for “QVQLVESGGGLVQAGGSLRLSCAASGITLFHYVMGWYRQAPGKERELVAVISSSGGSTYYADSVKVRFTISRDNAKNSVYLHMNSLKQVDTAVYYGAAKRYNYWGQGTQVTVSS”, “high polyreactivity”; as for “QVQLVESGGGLVQAGGSLRLSCAASGITLGAYAMGWYRQAPGKERELVAAISRSGGSTYYADSVKGRFTISRDNAKNTVYLQMNSLKPEDTAVYYCNAGITHGYDYWGQGTQLTVSS”, “high polyreactivity”.
On to “QVQLVESGGGLVQAGGSLRLSCAASGITLGGNGMGWYRQAPGKERELVAAISQSGGTTYYADSVKGRFTISRDNAKNTVYLQMNSLKPEDTAVYYCNALWRGHGRYNYWGQGTQVTVSS”, for which the “polyreactivity (PSR sort gate)” value is “low polyreactivity”.
As for “QVQLVESGGGLVQAGGSLRLSCAASGITLGRYAMGWYRQAPGKERALVAAIPRSGGSTYYADSVKGRFTISRDNAKNTVYLQMNSLKPEDTAVYYCNRRVYPTSDYDYWGQGTQVTVSS”, the entry is “high polyreactivity”; as for “QVQLVESGGGLVQAGGSLRLSCAASGITLGYYAMGWYRQAPGKERELVAAISYRGGNTYYADSVKGRFTISRDNAKNTVYLQMNSLKPEDTAVYYCNADLGYESGWWSKYDYWGQGNQVTVSS”, “low polyreactivity”; as for “QVQLVESGGGLVQAGGSLRLSCAASGITLGYYVMGCYRPAPGKERELVAAISSSGGRTYYADSVKGRFTISRDTAKNTVYLQMNCLKPEDTAVYYCAADVGRGIYDYWGQGNQVTVSS”, “low polyreactivity”.
With “QVQLVESGGGLVQAGGSLRLSCAASGITLKRYAMGWYRQAPGTERELVAAITTSGGSTYYADSVKGRFTISRDTAKNTVYLQMNSLKPEDTAVYYCNAEDYWGKYYYWGQGTQVTVSS”, the “polyreactivity (PSR sort gate)” value is recorded as “low polyreactivity”.
In the case of “QVQLVESGGGLVQAGGSLRLSCAASGITLLVNAMGWYRQAPGKERELVAAISGSSGGSTYYADSVKGRFTISRDNAKNTVYLQMNSLKPEDTAVYYCAKRKWYWGLSYIYDSWGQGTQVTVSS” it was “low polyreactivity”; in that of “QVQLVESGGGLVQAGGSLRLSCAASGITLRYYAMGWYRQAPGKERELVAAITYSGTNTRYADSVKGRFTISRDNAKNTVYFQMNSLKPEDTAVYYCAARNGFGSPQMGYWGQGTQVTVSS”, “high polyreactivity”; in that of “QVQLVESGGGLVQAGGSLRLSCAASGITLSIYAMGWYRQAPGKERELVAAINGNGGSTYYADSVKGRFTISRDNAKNTVYLQMNSLKPEDTAVYYCAVTDYVYEHDDYWGQGTEVTVSS”, “low polyreactivity”.
As for “QVQLVESGGGLVQAGGSLRLSCAASGITLSLYAMGWYRQAPGKERELVAAISRGGGRTYYADSVKGRFTISRDNAKNTVYLQMNSLKPEDTAVYYCNAYRRSYRWYGDLGEYWGQGTQVTVSS”, the entry is “high polyreactivity”; as for “QVQLVESGGGLVQAGGSLRLSCAASGITLTIYTMGWYRQAPGKERELVAAINWSGTRTYYADSVKGRFTISRDNAKNTVYFQMNSLKPEDTAVYYCAATTYRYPNILGYDYWGQGTQVSVSS”, “high polyreactivity”; as for “QVQLVESGGGLVQAGGSLRLSCAASGITLTRYAMGWYRQAPGKERELVAAITWSGGSTYYADSVKGRFTISRDNAKNTVYLQMNSLKPEDTAVYYCAAEYYEWVFWGYDYWGQGTQVTVSS”, “high polyreactivity”.
Regarding “QVQLVESGGGLVQAGGSLRLSCAASGITLVANTMGWYRQAPGKERELVATITSSGGSTYYADSVKGRFTISRDNAMNTVYLQMISLKPEDTAVYYCAASDLRYRGNYVYLPSEYWGQGTQVNVSS”, the “polyreactivity (PSR sort gate)” value is “low polyreactivity”.
As for “QVQLVESGGGLVQAGGSLRLSCAASGITLYFYAMGWYRQAPGKERELVAAISRGGRTYYADSVKGRFTISRDNAKNTVYLQMNSLKPEDTAVYYCAARYTSEYSAFDYWGQGTQVTVSS”, the entry is “low polyreactivity”.
